# ± gives the standard deviation.
# Experiment: collision cross section of modified peptide (TIMS, N2, iRT-aligned); higher = larger / more extended gas-phase ion
# Summary of the method: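 Collision cross section values rest on the Mason-Schamp equation applied to calibrated, run-aligned mobility data from synthetic peptides. Mobility (1/K0) was calibrated with three reference ions and aligned per run to the median iRT peptide deviation, and 1–3 technical replicates of the most abundant feature per charge state were averaged. Data came from a timsTOF Pro/HT in dda-PASEF mode (nitrogen, ~2.4 mbar) after a 120-min nanoflow C18 gradient at 60 °C.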
# [1] = charge state: 2, modification: Butyryl
# [2] = charge state: 3, modification: Butyryl
# [3] = charge state: 2, modification: Hydroxyproline
# [4] = charge state: 2, modification: Dimethyl (K)
# [5] = charge state: 3, modification: Dimethyl (K)
# [6] = charge state: 2, modification: Malonyl
# [7] = charge state: 2, modification: Succinyl
# [8] = charge state: 3, modification: Succinyl
# [9] = charge state: 2, modification: Propionyl
# [10] = charge state: 3, modification: Formyl
# [11] = charge state: 2, modification: Trimethyl (K)
# [12] = charge state: 3, modification: Trimethyl (K)
# [13] = charge state: 2, modification: Glutarylation
# [14] = charge state: 3, modification: Glutarylation
# [15] = charge state: 3, modification: Methyl (K)
# [16] = charge state: 2, modification: Methyl (K)
# [17] = charge state: 2, modification: Acetyl (K)
# [18] = charge state: 2, modification: Biotin
# [19] = charge state: 2, modification: Formyl
# [20] = charge state: 2, modification: hydroxyisobutyryl
# [21] = charge state: 2, modification: GlyGly (K)
# [22] = charge state: 3, modification: GlyGly (K)
# [23] = charge state: 2, modification: Crotonyl
# [24] = charge state: 3, modification: Crotonyl
# [25] = charge state: 3, modification: Acetyl (K)
# [26] = charge state: 2, modification: Citrullination (R)
# [27] = charge state: 3, modification: Citrullination (R)
# [28] = charge state: 3, modification: Hydroxyproline
# [29] = charge state: 3, modification: hydroxyisobutyryl
sequence,measurement,setting,value
GTITVSAQELKDNR [_GTITVSAQELK(Butyryl)DNR_],collision cross section,[1],422.6 ± 0.77 Å²
same,collision cross section,[2],481.65 ± 2.9 Å²
GSRGFPGEK [_GSRGFP(Hydroxyproline)GEK_],collision cross section,[3],330.58 ± 0.79 Å²
VNIGQGSHPQKVK [_VNIGQGSHPQK(Dimethyl (K))VK_],collision cross section,[4],407.47 ± 1.1 Å²
same,collision cross section,[5],469.28 Å²
LQLEIDQKK [_LQLEIDQK(Malonyl)K_],collision cross section,[6],367.76 ± 0.011 Å²
SKLLFSNTAAQK [_SK(Succinyl)LLFSNTAAQK_],collision cross section,[7],398.22 ± 0.77 Å²
ITESVAETAQTIKK [_ITESVAETAQTIK(Succinyl)K_],collision cross section,[7],424.69 ± 1.1 Å²
same,collision cross section,[8],512.63 ± 2.6 Å²
LLEEEDSKLK [_LLEEEDSK(Succinyl)LK_],collision cross section,[7],381.87 ± 0.24 Å²
same,collision cross section,[8],464.35 Å²
INNFSADIKDSK [_INNFSADIK(Propionyl)DSK_],collision cross section,[9],401.7 ± 0.42 Å²
VPTTEKPTVTVNFR [_VPTTEK(Succinyl)PTVTVNFR_],collision cross section,[7],427.05 ± 0.52 Å²
same,collision cross section,[8],513.15 ± 2.5 Å²
TQDQISNIKYHEEFEK [_TQDQISNIK(Formyl)YHEEFEK_],collision cross section,[10],551.65 ± 1.7 Å²
GEVQVSDKER [_GEVQVSDK(Butyryl)ER_],collision cross section,[1],363.29 ± 0.49 Å²
LTSLNVKYNNDK [_LTSLNVK(Trimethyl (K))YNNDK_],collision cross section,[11],406.52 ± 0.61 Å²
same,collision cross section,[12],461.22 ± 1.8 Å²
IVFSGNLFQHQEDSKK [_IVFSGNLFQHQEDSK(Gluratylation)K_],collision cross section,[13],499.16 ± 1.4 Å²
same,collision cross section,[14],531.31 ± 9.1 Å²
GITGKPGPK [_GITGKP(Hydroxyproline)GPK_],collision cross section,[3],315.51 ± 1.9 Å²
LTEKELAEAASK [_LTEK(Dimethyl (K))ELAEAASK_],collision cross section,[4],397.3 ± 0.55 Å²
same,collision cross section,[5],456.37 ± 5.1 Å²
IHNAENIQPGEQKYEYK [_IHNAENIQPGEQK(Methyl (K))YEYK_],collision cross section,[15],526.19 ± 0.79 Å²
YEQEHAAIQDKLFQVAK [_YEQEHAAIQDK(Gluratylation)LFQVAK_],collision cross section,[14],519.4 ± 1.2 Å²
IPQEKCILQTDVK [_IPQEK(Methyl (K))CILQTDVK_],collision cross section,[16],433.64 ± 1.1 Å²
same,collision cross section,[15],464.28 ± 2.7 Å²
SDSGKPYYYNSQTK [_SDSGK(Gluratylation)PYYYNSQTK_],collision cross section,[13],430.3 ± 1.5 Å²
same,collision cross section,[14],493.09 Å²
GFCFITYTDEEPVKK [_GFCFITYTDEEPVK(Acetyl (K))K_],collision cross section,[17],451.75 ± 3.1 Å²
SGNLTEDDKHNNAK [_SGNLTEDDK(Butyryl)HNNAK_],collision cross section,[1],425.09 ± 0.55 Å²
same,collision cross section,[2],472.83 ± 2.7 Å²
ITESVAETAQTIKK [_ITESVAETAQTIK(Biotin)K_],collision cross section,[18],443.04 ± 1.4 Å²
DFDTALKHYDK [_DFDTALK(Succinyl)HYDK_],collision cross section,[7],404.59 ± 1.1 Å²
same,collision cross section,[8],465.49 ± 2.9 Å²
DTPTSAGPNSFNKGK [_DTPTSAGPNSFNK(Formyl)GK_],collision cross section,[19],404 ± 0.2 Å²
ISALQGKLSK [_ISALQGK(hydroxyisobutyryl)LSK_],collision cross section,[20],359.85 ± 0.79 Å²
SGNLTEDDKHNNAK [_SGNLTEDDK(Gluratylation)HNNAK_],collision cross section,[13],428.34 ± 1.5 Å²
same,collision cross section,[14],486.64 ± 2.8 Å²
LEQVEKELLR [_LEQVEK(Acetyl (K))ELLR_],collision cross section,[17],385.81 ± 0.48 Å²
TLQKQSVVYGGK [_TLQK(GlyGly (K))QSVVYGGK_],collision cross section,[21],403.57 ± 1.5 Å²
same,collision cross section,[22],459.43 ± 2 Å²
SNEEGSEEKGPEVR [_SNEEGSEEK(Propionyl)GPEVR_],collision cross section,[9],404.8 ± 1.3 Å²
DSSPTTNSKLSALQR [_DSSPTTNSK(Crotonyl)LSALQR_],collision cross section,[23],436.18 ± 0.54 Å²
same,collision cross section,[24],499.72 ± 1.3 Å²
SLEEEGAAHSGKR [_SLEEEGAAHSGK(Acetyl (K))R_],collision cross section,[17],412.49 ± 2.4 Å²
same,collision cross section,[25],476.34 ± 2.4 Å²
IHVQSSSDSSDEPAEKR [_IHVQSSSDSSDEPAEK(Butyryl)R_],collision cross section,[1],452.33 ± 0.51 Å²
same,collision cross section,[2],504.47 ± 2.6 Å²
ILDLKTGTVK [_ILDLK(hydroxyisobutyryl)TGTVK_],collision cross section,[20],366.99 ± 1.3 Å²
IPQEKCILQTDVK [_IPQEK(hydroxyisobutyryl)CILQTDVK_],collision cross section,[20],438.91 ± 0.79 Å²
VEPIHAVVLPRGK [_VEPIHAVVLPR(Citrullination (R))GK_],collision cross section,[26],406.23 ± 0.55 Å²
same,collision cross section,[27],492.34 ± 18 Å²
LLEQKTQESQK [_LLEQK(Propionyl)TQESQK_],collision cross section,[9],393.54 ± 0.65 Å²
YTAILNQIPSHSSSIR [_YTAILNQIP(Hydroxyproline)SHSSSIR_],collision cross section,[3],473.92 ± 0.82 Å²
same,collision cross section,[28],518.79 ± 6.1 Å²
IINEPTAAAIAYGLDKK [_IINEPTAAAIAYGLDK(Methyl (K))K_],collision cross section,[16],488.76 ± 3.7 Å²
same,collision cross section,[15],550.89 ± 0.34 Å²
LAEEENKAK [_LAEEENK(Succinyl)AK_],collision cross section,[7],348.59 ± 0.23 Å²
LTSLNVKYNNDK [_LTSLNVK(Gluratylation)YNNDK_],collision cross section,[13],413.21 ± 1.1 Å²
DFDTALKHYDK [_DFDTALK(Propionyl)HYDK_],collision cross section,[9],403.21 Å²
PASGAGAGAGAGKR [_PASGAGAGAGAGK(Crotonyl)R_],collision cross section,[23],364.92 ± 9.9 Å²
same,collision cross section,[24],464.44 ± 2.8 Å²
LDHLAEKFR [_LDHLAEK(Gluratylation)FR_],collision cross section,[13],375.69 ± 0.099 Å²
same,collision cross section,[14],446.6 ± 1.7 Å²
VYIASSSGSTAIKK [_VYIASSSGSTAIK(Malonyl)K_],collision cross section,[6],409.24 ± 0.039 Å²
GDQGEPGPSGNPGK [_GDQGEPGPSGNP(Hydroxyproline)GK_],collision cross section,[3],343.56 ± 0.79 Å²
DDSFLGKLGGTLAR [_DDSFLGK(Acetyl (K))LGGTLAR_],collision cross section,[17],410.51 ± 1.7 Å²
same,collision cross section,[25],489.73 Å²
GEVGAGAGPGAQAGPSAKR [_GEVGAGAGPGAQAGPSAK(Dimethyl (K))R_],collision cross section,[4],422.35 ± 0.53 Å²
same,collision cross section,[5],490.58 ± 1.6 Å²
LFVGGIKEDTEEHHLR [_LFVGGIK(hydroxyisobutyryl)EDTEEHHLR_],collision cross section,[20],501.81 Å²
same,collision cross section,[29],546.81 ± 1.2 Å²
TFGKAAGPSLSHTSGGTQSK [_TFGK(Butyryl)AAGPSLSHTSGGTQSK_],collision cross section,[1],496.92 ± 1.5 Å²
same,collision cross section,[2],514.77 ± 3.5 Å²
GEKGLPGLAGDHGEFGEK [_GEKGLP(Hydroxyproline)GLAGDHGEFGEK_],collision cross section,[28],558.56 ± 0.81 Å²
TQDQISNIKYHEEFEK [_TQDQISNIK(Butyryl)YHEEFEK_],collision cross section,[2],559.77 ± 1.1 Å²
ITESVAETAQTIKK [_ITESVAETAQTIK(hydroxyisobutyryl)K_],collision cross section,[20],425.76 ± 3.1 Å²
same,collision cross section,[29],520.92 ± 2 Å²
DKALPLEAEVAPVK [_DK(Trimethyl (K))ALPLEAEVAPVK_],collision cross section,[11],415.71 ± 1.1 Å²
same,collision cross section,[12],491.82 ± 2.4 Å²
KYEEIDNAPEER [_K(Succinyl)YEEIDNAPEER_],collision cross section,[7],412.18 ± 0.54 Å²
same,collision cross section,[8],490.15 Å²
LGNDFHTNKR [_LGNDFHTNK(GlyGly (K))R_],collision cross section,[21],384.34 ± 1.5 Å²
same,collision cross section,[22],447.63 ± 1.2 Å²
SHLRHAIPSAER [_SHLR(Citrullination (R))HAIPSAER_],collision cross section,[26],388.58 ± 0.81 Å²
same,collision cross section,[27],492.66 ± 4.6 Å²
TEVLSPNSKVESK [_TEVLSPNSK(Succinyl)VESK_],collision cross section,[7],402.26 ± 0.79 Å²
same,collision cross section,[8],458.68 ± 13 Å²
VLTANSNPSSPSAAKR [_VLTANSNPSSPSAAK(Formyl)R_],collision cross section,[19],421.8 ± 0.8 Å²
same,collision cross section,[10],501.92 ± 27 Å²
LQEKVESAQSEQK [_LQEK(Propionyl)VESAQSEQK_],collision cross section,[9],417.86 ± 1.3 Å²
same,collision cross section,"charge state: 3, modification: Propionyl",502.35 ± 1.5 Å²
HELQANCYEEVKDR [_HELQANCYEEVK(Succinyl)DR_],collision cross section,[7],444.39 Å²
same,collision cross section,[8],483.15 ± 3.9 Å²
ITESVAETAQTIKK [_ITESVAETAQTIK(Crotonyl)K_],collision cross section,[23],424.18 ± 0.81 Å²
same,collision cross section,[24],514.18 ± 1.1 Å²
GEVGAGAGPGAQAGPSAKR [_GEVGAGAGPGAQAGPSAK(hydroxyisobutyryl)R_],collision cross section,[20],426.95 ± 0.56 Å²
same,collision cross section,[29],486.12 ± 1.9 Å²
TLQKQSVVYGGK [_TLQK(Succinyl)QSVVYGGK_],collision cross section,[7],397.13 ± 0.77 Å²
LGVATVAKGVCGACK [_LGVATVAK(Biotin)GVCGACK_],collision cross section,[18],431.82 Å²
same,collision cross section,"charge state: 3, modification: Biotin",507.7 Å²
GETASKLQSEISR [_GETASK(Butyryl)LQSEISR_],collision cross section,[1],390.84 ± 0.85 Å²
same,collision cross section,[2],467.14 ± 2.9 Å²
